Assay [1] deals with p60ΔCD-HA K19E (Homo sapiens (Human)) (UniProt P19438). As to the kind of experiment: cell staining, % positive cells / % HA positive cells, p60ΔCD set at 1.
Assay [2] deals with p60ΔCD-HA KY19/20AA (Homo sapiens (Human)) (UniProt P19438). The assay is described as above.
For assay [3], the target named is p60ΔCD-HA T61A (Homo sapiens (Human)) (UniProt P19438). Described as above.
In assay [4] the target is p60ΔCD-HA R77A (Homo sapiens (Human)) (UniProt P19438). The assay is described as above.
Assay [5] has as its target p60ΔCD-HA E57A (Homo sapiens (Human)) (UniProt P19438). The description is as above.
The target of assay [6] is p60ΔCD-HA L112E (Homo sapiens (Human)) (UniProt P19438). The assay is described as above.
Assay [7] concerns the target p6055-211 (Homo sapiens (Human)) (UniProt P19438). Described as above.
Assay [8] addresses p60ΔCD-HA Q24A (Homo sapiens (Human)) (UniProt P19438). The assay is described as above.
Assay [9] addresses p60ΔCD-HA W108T (Homo sapiens (Human)) (UniProt P19438). The description is as above.
The target in assay [10] is p60ΔCD-HA N66F (Homo sapiens (Human)) (UniProt P19438). The description is as above.
Assay [11] deals with p60ΔCD-HA K32A (Homo sapiens (Human)) (UniProt P19438). The assay is described as above.
The target in assay [12] is p60ΔCD-HA (Homo sapiens (Human)) (UniProt P19438). Described as above.
In assay [13] the target is p60ΔCD-HA DT49/50AA (Homo sapiens (Human)) (UniProt P19438). Described as above.
The target of assay [14] is p60ΔCD-HA K19E (Homo sapiens (Human)) (UniProt P19438). As to the kind of experiment: cell staining, normalized to HA staining, p60ΔCD set at 1.
The target in assay [15] is p60ΔCD-HA KY19/20AA (Homo sapiens (Human)) (UniProt P19438). The assay is described as above.
For assay [16], the target named is p60ΔCD-HA T61A (Homo sapiens (Human)) (UniProt P19438). Described as above.
Assay [17] deals with p60ΔCD-HA R77A (Homo sapiens (Human)) (UniProt P19438). The assay is described as above.
For assay [18], the target named is p60ΔCD-HA E57A (Homo sapiens (Human)) (UniProt P19438). Described as above.
For assay [19], the target named is p60ΔCD-HA L112E (Homo sapiens (Human)) (UniProt P19438). The description is as above.
For assay [20], the target named is p6055-211 (Homo sapiens (Human)) (UniProt P19438). The description is as above.
The target of assay [21] is p60ΔCD-HA Q24A (Homo sapiens (Human)) (UniProt P19438). Described as above.
For assay [22], the target named is p60ΔCD-HA W108T (Homo sapiens (Human)) (UniProt P19438). The description is as above.
The target in assay [23] is p60ΔCD-HA N66F (Homo sapiens (Human)) (UniProt P19438). The description is as above.
Assay [24] addresses p60ΔCD-HA K32A (Homo sapiens (Human)) (UniProt P19438). The description is as above.
The target of assay [25] is p60ΔCD-HA (Homo sapiens (Human)) (UniProt P19438). Described as above.
The target of assay [26] is p60ΔCD-HA DT49/50AA (Homo sapiens (Human)) (UniProt P19438). Described as above.

“p60-specific monoclonal antibody clone MAB225 (R&D Systems)”: the MAB225 staining normalized against HA staining (relative to p60ΔCD) was 1.05 in [1]; 0.59 in assay [2]; 1.42 in assay [3]; 1.06 in assay [4]; 1.68 in [5]; 1.31 in assay [6]. For the same substance, the MAB225 staining normalized against HA staining (relative to p60ΔCD) in [7] stood at 0.87; in [8], 1.06; in [9], 1.32; in [10] it was 0.67; in [11], 0.36; in assay [12], 1. The substance also came in with an MAB225 staining normalized against HA staining (relative to p60ΔCD) in assay [13] of 1.16.
Regarding “p60-specific monoclonal antibody clone 4.12 (Zymed)”, the clone 4.12 staining normalized against HA staining (relative to p60ΔCD) in assay [14] came out at 1.07; in assay [15], 0.14; in assay [16], 1.28; in assay [17], 0.99; in [18], 0.04; in [19], 1.27. Besides, the clone 4.12 staining normalized against HA staining (relative to p60ΔCD) in assay [20] worked out at 0.02; in [21], 0.97; in assay [22] it was 1.11; in [23] it was 0.04; in assay [24], 0.01; in [25], 1. Besides, the clone 4.12 staining normalized against HA staining (relative to p60ΔCD) in assay [26] turned out to be 0.96.

(Values after patent publication US20100041596A1.)
